The target in one series is FUS RRM (UniProt P35637 285-371). The series can be described thus: NMR; 30 C; NMR/ITC: 10 mM NaPO4 pH 7.0, 50 mM L-Arg, 50 mM L-Glu, 5 mM DTT (TCEP for ITC); NMR 313 K (FUS 30 C), ITC 27 C; single-molecule: 50% nuclear extract, 3.2 mM MgCl2, 50 mM K-glutamate, 20 mM HEPES pH 7.5, 1.5 mM ATP, 30 C. The note with it: protein: recombinant; hairpin.
Another series deals with GB1-SRSF1ΔRS (UniProt Q07955 1-197, del198-248). Briefly: ITC; 27 C; NMR buffer with TCEP; NMR/ITC: 10 mM NaPO4 pH 7.0, 50 mM L-Arg, 50 mM L-Glu, 5 mM DTT (TCEP for ITC); NMR 313 K (FUS 30 C), ITC 27 C; single-molecule: 50% nuclear extract, 3.2 mM MgCl2, 50 mM K-glutamate, 20 mM HEPES pH 7.5, 1.5 mM ATP, 30 C. The note with it: protein: recombinant; hairpin. (In general: In ITC the heat of successive injections is recorded.)
GB1-SRSF1ΔRS, sequence (Q07955 1-197, stated change not applied): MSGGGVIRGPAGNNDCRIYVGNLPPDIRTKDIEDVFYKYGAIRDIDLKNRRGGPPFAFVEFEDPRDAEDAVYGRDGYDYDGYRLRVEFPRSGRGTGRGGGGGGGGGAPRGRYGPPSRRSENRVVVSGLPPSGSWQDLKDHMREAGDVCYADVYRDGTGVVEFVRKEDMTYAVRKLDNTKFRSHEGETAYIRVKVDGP

From publication PMC8724738, “Exon‐independent recruitment of SRSF1 is mediated by U1 snRNP stem‐loop 3” come the findings set out here.

The Kd is a measure of binding affinity in units of concentration.

FUS RRM, sequence (P35637 285-371): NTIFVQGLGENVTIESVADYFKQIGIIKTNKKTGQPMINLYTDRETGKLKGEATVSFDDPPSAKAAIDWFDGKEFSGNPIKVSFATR

B1: U1 snRNA stem-loop 3 (SL3) wild type (structured_RNA)
RNA: GCGAUUUCCCCAAAUGUGGGAAACUCGC
As for B1, in the series with FUS RRM, the binding result is reported as “binds”. Moreover, the Kd with GB1-SRSF1ΔRS is 10.9 ± 2.8 µM.
